Data: publication PMC6200392

Tests used:
[1] = molecular target: PRC1 N-terminus (Homo sapiens) (UniProt O43663); conditions: cited from earlier work
[2] = molecular target: PRC1 (unlabeled, full-length) (human) (UniProt O43663)

| Substance | Kd [1] | relative sliding of PRC1-crosslinked antiparallel microtubules, average phase-1 sliding velocity; 0.2 and 1 nM PRC1 at 6 nM Kif4A-GFP [2] |
| --- | --- | --- |
| Kif4A C-terminus (from UniProt O95239) | 300 nM | – |
| Kif4A-GFP (from UniProt O95239 1-1232) (natural protein) | – | 4.6 ×10⁻⁶ cm/s |
